Measurements as given in patent publication US20220031840A1, “Method of Treatment” (HaemaLogix Pty Ltd, priority 2018, published 2022).

Assays:
[1] = test system: macrophage inhibitory factor (MIF); experiment: Biomarker analysis: serum MIF; format: in vivo, human; settings: adjusted for cytokine baseline differences
Description: (§1) Patient serum samples for biomarker analysis were collected approximately 30 minutes before infusion of kappamab and then at 6, 48, 192, and 1,080 hours after infusion for all patients. Samples were analysed in triplicate and serum levels of 48 human cytokines, chemokines, and growth factors were measured using the Bio-Plex Pro™ Human Cytokine 27-plex and 21-plex assays according to the manufacturer's recommendations (Bio-Rad, Carlsbad, Calif., USA; Cat No M10-0KCAF0Y, mg0-005KMII). Results were verified by repeating the 21-plex assay in triplicate and the samples were randomized across the assay plate. Pre-infusion samples were used as the baseline (t=0) for the analysis.
(§2) Multivariate analysis of the biomarker data was performed using R version 3.1.0 (2014-04-10) software (http://www.R-project.org/). Linear mixed effects modelling was completed using 1me4 (Bates et al. 2015). […]
(§3) To find significance between kappamab dose, time, and cytokine expression levels, we fitted a linear mixed-effects model that modelled cytokine fluorescence expression levels with fixed-effects terms for baseline cytokine fluorescence expression, kappamab dose (with 4 levels: 0.3, 1.0, 3.0, and 10 mg/kg), time (treated as factor with 5 levels), and cytokine with 48 levels, plus their interactions, with a random effect associated with patient (12 levels) and plex (2 levels). […]

CCL27 = experiment: Biomarker analysis: serum CCL27; format: in vivo, human; settings: adjusted for cytokine baseline differences
Description: as §1, §2, §3

[2] = test system: 48 human cytokines, chemokines, and growth factors; experiment: Biomarker analysis, Bio-Plex 27-plex and 21-plex, mixed-effects model; format: in vivo; settings: 48 cytokines
Description: as §1, §2, §3

HGF = experiment: Biomarker analysis: serum HGF; format: in vivo, human; settings: adjusted for cytokine baseline differences
Description: as §1, §2, §3

[3] = Pharmacokinetics: serum kappamab by ELISA; format: in vivo, human
Description: The PK analysis was based on measurement of serum kappamab using an ELISA that was validated according to recommended guidelines. Briefly, immobilized human kappa Bence Jones protein (Bethyl, Sigma, USA) was used to capture kappamab. The captured kappamab was then detected using an AP-conjugated anti-human IgG (gamma chain specific; Sigma, Cat. No. H4522) followed by colour development with the AP substrate.

multiple myeloma = experiment: Myeloma response, 18FDG-PET scan; format: in vivo, human
Description: FIG. 5. ^[…]-positron emission tomography (^18FDG-PET) scans for Patient 8 (who was receiving lenalidomide) prior to kappamab treatment (Panel A) and 30 days after intravenous infusion with 3.0 mg/kg kappamab (Panel B). ^18FDG-PET scanning was performed encompassing the skull vertex down to the knees on the combined PET/Computed Tomography (CT) scanner and a contemporaneous low-dose, non-contrast CT scan was performed for the purposes of attenuation correction and to provide anatomical correlation. […] In the spine, disease is most prominent within the sacrum. In the appendicular skeleton, disease is most pronounced within the proximal femur, where a prosthetic rod is in situ. No metabolically active disease is present outside the bones. In Panel B, ^18FDG-PET scanning was performed as before to assess the response 30 days after kappamab treatment. […] Low-grade uptake on the right lower lateral chest wall was […] and may reflect physiological muscular activity.
As patients only received a single infusion of kappamab it was not anticipated that any conventional responses would be observed.

CXCL10 = experiment: Biomarker analysis: serum CXCL10; format: in vivo, human; settings: adjusted for cytokine baseline differences
Description: as §1, §2, §3

CXCL9 = experiment: Biomarker analysis: serum CXCL9; format: in vivo, human; settings: adjusted for cytokine baseline differences
Description: as §1, §2, §3

## kappamab: humanized form of K121 anti-KMA antibody; VH SEQ ID NO: 1, VL SEQ ID NO: 2
[1]
  Change in serum concentration: dose-related decreases
CCL27
  Change in serum concentration: dose-related decreases
[2]
  Increases in serum cytokine concentrations in response to treatment: No increases
HGF
  Change in serum concentration: dose-related decreases
[3]; 1.0 mg/kg single IV dose, N = 3, geometric mean
  Cmax: 20600 ng/mL
[3]; human, in vivo
  Manner of decline of serum kappamab after Cmax: biphasic manner
  Serum concentration at Day 30 relative to Cmax: 0.3-10 % of Cmax
  Volume of distribution (Vz), description: low and similar across ascending doses
[3]; human, in vivo, iv, 0.3 mg/kg
  AUC0-tz: 803 µg·h/mL
  AUC0-tz normalized for dose (mg/kg): 2678 µg·h/mL
  AUC0-∞: 901 µg·h/mL
  AUC0-∞ normalized for dose (mg/kg): 3003 µg·h/mL
  CL (apparent total body clearance): 7.99 mL/day/kg
  Cmax: 5440 ng/mL
  Vz (apparent volume of distribution during terminal phase): 0.114 L/kg
  t1/2 (apparent elimination half-life): 237 h
  tmax: 3.00 h
[3]; human, in vivo, iv, 1 mg/kg
  AUC0-tz: 3006 µg·h/mL
  AUC0-tz normalized for dose (mg/kg): 3006 µg·h/mL
  AUC0-∞ normalized for dose (mg/kg): 3079 µg·h/mL
  CL (apparent total body clearance): 7.79 mL/day/kg
  Vz (apparent volume of distribution during terminal phase): 0.0946 L/kg
  t1/2 (apparent elimination half-life): 202 h
  tmax: 4.00 h
[3]; human, in vivo, iv, 3 mg/kg
  AUC0-tz: 6864 µg·h/mL
  AUC0-tz normalized for dose (mg/kg): 2288 µg·h/mL
  AUC0-∞: 6927 µg·h/mL
  AUC0-∞ normalized for dose (mg/kg): 2309 µg·h/mL
  CL (apparent total body clearance): 10.4 mL/day/kg
  Cmax: 69900 ng/mL
  Vz (apparent volume of distribution during terminal phase): 0.120 L/kg
  t1/2 (apparent elimination half-life): 191 h
  tmax: 2.00 h
[3]; human, in vivo, iv, 10 mg/kg
  AUC0-tz: 22994 µg·h/mL
  AUC0-tz normalized for dose (mg/kg): 2299 µg·h/mL
  AUC0-∞: 23227 µg·h/mL
  AUC0-∞ normalized for dose (mg/kg): 2323 µg·h/mL
  CL (apparent total body clearance): 10.3 mL/day/kg
  Cmax: 219000 ng/mL
  Vz (apparent volume of distribution during terminal phase): 0.0770 L/kg
  t1/2 (apparent elimination half-life): 124 h
  tmax: 4.00 h
[3]; in vivo
  Detectability of kappamab in serum: could be detected at all dose levels (up to Day 30)
[3]; in vivo, iv
  Start of the apparent terminal elimination phase: ~7 days
  Time at which maximum serum concentrations were achieved: 2 to 4 h
Multiple myeloma; Patient 8 (receiving lenalidomide), 3 mg/kg, 30 days after infusion versus baseline scan, 3 mg/kg
  18FDG-PET metabolic response: favourable and almost complete metabolic response
Multiple myeloma; Patient 8, 3 mg/kg
  Symptomatic improvement: diminished bone pain and normalization of kidney function
CXCL10
  Change in serum concentration: dose-related decreases
CXCL9
  Change in serum concentration: dose-related decreases
